Laboratory results: paper PMC11092324 (Journal of Virology, 2024)

Tests used:
Conditions in all cases: both partners purified
[1] = target: T1, GI.9 Vancouver virus-like particles (VP1 protein of the norovirus GI.9 Vancouver strain) (Norovirus Hu/GI.9/Vancouver730/2004/CAN, UniProt F2XMU3, strain); assay: ELISA; sandwich ELISA: Strep-tagged CV-2F5 scFv (0.7 µM in PBS) held on Strep-Tactin-coated wells, VLPs added in twofold serial dilutions, 37°C 2 h, detected with rabbit anti-VLP antisera; data fit to the Michaelis-Menten equation, Km taken as Kd (affinity or avidity); concentration counted as VP1
T1 construct: also called Vancouver VLPs; GI.9 Vancouver VP1

[2] = target: T2, P domain of the VP1 protein from the GI.4 Chiba strain (P dimer) (norovirus GI.4 Chiba strain); assay: crystal structure; Chiba P domain mixed with CV-2F5 scFv in a molar ratio of 1:1.2, complex isolated by size-exclusion chromatography, crystallized by sitting drop at 25°C in 35% Tacsimate pH 7.0
T2 construct: also called Chiba P domain protein; Chiba P dimers; source: E. coli cell-free protein synthesis system, purified (HisTrap, SUMO protease, HiTrapQ)
T2 chain: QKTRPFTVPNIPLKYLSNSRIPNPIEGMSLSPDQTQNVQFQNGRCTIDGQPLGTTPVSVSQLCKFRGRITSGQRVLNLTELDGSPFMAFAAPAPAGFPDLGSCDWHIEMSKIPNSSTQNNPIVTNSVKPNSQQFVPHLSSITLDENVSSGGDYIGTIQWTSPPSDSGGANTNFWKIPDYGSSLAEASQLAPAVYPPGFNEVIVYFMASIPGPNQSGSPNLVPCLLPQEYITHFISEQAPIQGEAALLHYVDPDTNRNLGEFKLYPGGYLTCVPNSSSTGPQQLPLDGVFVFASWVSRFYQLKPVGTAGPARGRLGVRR

[3] = target: T1, GI.9 Vancouver virus-like particles …; assay: ELISA; sandwich ELISA: CV-1A1 Fv-clasp or scFv (0.7 µM in 50 mM carbonate buffer pH 9.6) coated on high-binding microplates, VLPs added in twofold serial dilutions, 37°C 2 h, detected with rabbit anti-VLP antisera; data fit to the Michaelis-Menten equation, Km taken as Kd (affinity or avidity); concentration counted as VP1

B1: Strep-tagged CV-2F5 scFv (scFv, V domains shown)
VH: EVQLVESGGGLVKPGGSLRLSCAASGFTFSSYNMNWVRQAPGKGLEWVSSISTSSRYIYYADSVKGRFTISRDNAKNSLYLQMNSLRAEDTAVYYCAREEGSVDYGMDVWGQGTTVTVSS
VL: not shown
notes: also called CV-2F5-Strep; source: E. coli harboring pETSUMO-CV-2F5-Strep, purified (TALON resin, SUMO protease on the resin); not shown: His tag, N-terminal, cleaved; SUMO, N-terminal, cleaved; Strep-tag, C-terminal, kept
**Q.** How did the Kd [1] turn out when B1 was run?
**A.** 14.4 nM

B2: CV-2F5 scFv (N11-TEV construct, tag removed) (scFv, V domains shown)
VH: EVQLVESGGGLVKPGGSLRLSCAASGFTFSSYNMNWVRQAPGKGLEWVSSISTSSRYIYYADSVKGRFTISRDNAKNSLYLQMNSLRAEDTAVYYCAREEGSVDYGMDVWGQGTTVTVSS
VL: not shown
notes: also called CV-2F5 antibody fragment; CV-2F5 scFv antibodies; source: E. coli cell-free protein synthesis system, purified (HisTrap, TEV protease, HiTrap SP)
**Q.** With B2 as the binder, how does the “stoichiometry N” value [2] read?
**A.** 1

B3: CV-1A1 Fv-clasp (other)
VH: EVQLVESGAEVKKPGASVKVSCKASGYTFTSLYMHWVRQAPGQGLEWMGMINPSGGGTWNAQKFQGRVTMTRDTSTSTVYMELRSLRSDDTAMYYCARDSDQYSQGLGYWGQGTLVTVCS
VL: QSALTQPASVSGSPGQSITISCTGTSSDVGGYNYVSWYQQHPGKAPKLMIYDVSKRPSGVSNRFSGSKSGNTASLTISGLQAKDEADYYCSSYTSSSTWVFGGGTKLTVL
notes: also called CV-1A1 Fv-clasp fragments; Fv-clasp version of CV-1A1; source: E. coli cell-free protein synthesis system (with DsbC and Skp), purified (HisTrap, TEV protease, HiTrap Q)
**Q.** Does B3 bind [3]?
**A.** no binding
